From PMC5655542, “HpARI Protein Secreted by a Helminth Parasite Suppresses Interleukin-33” (Immunity, 2017) come the findings set out here.

For the experiment, the target named is T1, H. polygyrus Alarmin Release Inhibitor (HpARI), recombinant mature 6-His and Myc-tagged protein (Heligmosomoides polygyrus).
T1 construct: HpARI, Heligmosomoides polygyrus; 251-aa protein including a 16-aa signal peptide; the mature protein (26 kDa, three CCP-like modules) was expressed; the CCP1/2 construct starts at amino acid 17; Codon-optimised synthetic gene cloned with AscI and NotI into pSecTAG2A; also called candidate D; not shown: myc, C-terminal, kept; His6, C-terminal, kept
The experiment is described as follows: SPR; BIAcore T200; HpARI captured via its 6-His tag on a Ni2+-NTA chip to 400 RU; cytokine injected (mIL-33 6.2-167 nM, hIL-33 0.062-1.67 μM); 25°C; 10 mM NaH2PO4 pH 7.5, 150 mM NaCl, 50 μM EDTA, 0.05% surfactant P20; single kinetic titration, global 1:1 fit. Conditions: both partners purified.

By Kd is commonly meant the concentration at which binding is half-saturated. One may read the stoichiometry N as a count of units in the complex or per binding partner.

T1 sequence (A0A3P7XL18 63-297): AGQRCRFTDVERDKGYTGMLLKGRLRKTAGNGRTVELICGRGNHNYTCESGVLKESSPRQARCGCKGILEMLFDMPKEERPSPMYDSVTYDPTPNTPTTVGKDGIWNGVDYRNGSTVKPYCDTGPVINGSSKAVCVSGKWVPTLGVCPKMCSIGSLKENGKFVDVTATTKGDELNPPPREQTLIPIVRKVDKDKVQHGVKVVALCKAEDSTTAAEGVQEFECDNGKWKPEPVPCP

B1: recombinant murine IL-33, untreated (reduced, active form) (ligand)
chain: SIQGTSLLTQSPASLSTYNDQSVSFVLENGCYVINVDDSGKDQEQDQVLLRYYESPCPASQSGDGVDGKKLMVNMSPIKDTDIWLHANDKDYSVELQRGDVSPPEQAFFVLHKKSSDFVSFECKNLPGTYIGVKDNQLALVEEKDESCNNIMFKLSKI
modifications: reduced (free cysteines, no disulfides), active form; limits not given, taken as the usual commercial mature mouse IL-33 (Ser109-Ile266, UniProt chain 109-266)
With B1, the Kd came to 560 ± 100 pM and the “stoichiometry N” value was 1.
